US20170190753A1 (LABORATOIRE FRANCAIS DU FRACTIONNEMENT ET DES …, published 2017)

B1: pCEP4-1NT10-11CT20 (other)
chain: EDCNELPPRRNTEILTGSWSDQTYPEGTQAIYKCRPGYRSLGNVIMVCRKGEWVALNPLRKCQKRPCGHPGDTPFGTFTLTGGNVFEYGVKAVYTCNEGYQLLGEINYRECDTDGWTNDIPICEVVKCLPVTAPENGKIVSSAMEPDREYHFGQAVRFVCNSGYKIEGDEEMHCSDDGFWSKEKPKCVEISCKSPDVINGSPISQKIIYKENERFQYKCNMGYEYSERGDAVCTESGWRPLPSCEEKSCDNPYIPNGDYSPLRIKHRTGDEITYQCRNGFYPATRGNTAKCTSTGWIPAPRCTLKPCDYPDIKHGGLYHENMRRPYFPVAVGKYYSYYCDEHFETPSGSYWDHIHCTQDGWSPAVPCLRKCYFPYLENGYNQNHGRKFVQGKSIDVACHPGYALPKAQTTVTCMENGWSPTPRCIRVKTCSKSSIDIENGFISESQYTYALKEKAKYQCKLGYVTADGETSGSITCGKDGWSAQPTCIKSCDIPVFMNARTKNDFTWFKLNDTLDYECHDGYESNTGSTTGSIVCGYNGWSDLPICYERECELPKIDVHLVPDRKKDQYKVGEVLKFSCKPGFTIVGPNSVQCYHFGLSPDLPICKEQVQSGASGCGPPPELLNGNVKEKTKEEYGHSEVVEYYCNPRFLMKGPNKIQCVDGEWTTLPVCIVEESTCGDIPELEHGWAQLSSPPYYYGDSVEFNCSESFTMIGHRSITCIHGVWTQLPQCVAIDKLKKCKSSNLIILEEHLKNKKEFDHNSNIRYRCRGKEGWIHTVCINGRWDPEVNCSMAQIQLCPPPPQIPNSHNMTTTLNYRDGEKVSVLCQENYLIQEGEEITCKDGRWQSIPLCVEKIPCSQPPQIEHGTINSSRSSQESYAHGTKLSYTCEGGFRISEENETTCYMGKWSSPPQCEGLPCKSPPEISHGVVAHMSDSYQYGEEVTYKCFEGFGIDGPAIAKCLGEKWSHPPSCIKTDCLSLPSFENAIPMGEKKDVYKAGEQVTYTCATYYKMDGASNVTCINSRWTGRPTCRDTSCVNPPTVQNAYIVSRQMSKYPSGERVRYQCRSPYEMFGDEEVMCLNGNWTEPPQCKDSTGKCGPPPPIDNGDITSFPLSVYAPASSVEYQCQNLYQLEGNKRITCRNGQWSEPPKCLHPCVISREIMENYNIALRWTAKQKLYSRTGESVEFVCKRGYRLSSRSHTLRTTCWDGKLEYPTCAKRGGSGHHHHHH
B2: pCEP4-1NT7-9CT20 (other)
chain: EDCNELPPRRNTEILTGSWSDQTYPEGTQAIYKCRPGYRSLGNVIMVCRKGEWVALNPLRKCQKRPCGHPGDTPFGTFTLTGGNVFEYGVKAVYTCNEGYQLLGEINYRECDTDGWTNDIPICEVVKCLPVTAPENGKIVSSAMEPDREYHFGQAVRFVCNSGYKIEGDEEMHCSDDGFWSKEKPKCVEISCKSPDVINGSPISQKIIYKENERFQYKCNMGYEYSERGDAVCTESGWRPLPSCEEKSCDNPYIPNGDYSPLRIKHRTGDEITYQCRNGFYPATRGNTAKCTSTGWIPAPRCTLKPCDYPDIKHGGLYHENMRRPYFPVAVGKYYSYYCDEHFETPSGSYWDHIHCTQDGWSPAVPCLRKCYFPYLENGYNQNYGRKFVQGKSIDVACHPGYALPKAQTTVTCMENGWSPTPRCIRVKTGASGCDIPVFMNARTKNDFTWFKLNDTLDYECHDGYESNTGSTTGSIVCGYNGWSDLPICYERECELPKIDVHLVPDRKKDQYKVGEVLKFSCKPGFTIVGPNSVQCYHFGLSPDLPICKEQVQSCGPPPELLNGNVKEKTKEEYGHSEVVEYYCNPRFLMKGPNKIQCVDGEWTTLPVCIVEESTCGDIPELEHGWAQLSSPPYYYGDSVEFNCSESFTMIGHRSITCIHGVWTQLPQCVAIDKLKKCKSSNLIILEEHLKNKKEFDHNSNIRYRCRGKEGWIHTVCINGRWDPEVNCSMAQIQLCPPPPQIPNSHNMTTTLNYRDGEKVSVLCQENYLIQEGEEITCKDGRWQSIPLCVEKIPCSQPPQIEHGTINSSRSSQESYAHGTKLSYTCEGGFRISEENETTCYMGKWSSPPQCEGLPCKSPPEISHGVVAHMSDSYQYGEEVTYKCFEGFGIDGPAIAKCLGEKWSHPPSCIKTDCLSLPSFENAIPMGEKKDVYKAGEQVTYTCATYYKMDGASNVTCINSRWTGRPTCRDTSCVNPPTVQNAYIVSRQMSKYPSGERVRYQCRSPYEMFGDEEVMCLNGNWTEPPQCKDSTGKCGPPPPIDNGDITSFPLSVYAPASSVEYQCQNLYQLEGNKRITCRNGQWSEPPKCLHPCVISREIMENYNIALRWTAKQKLYSRTGESVEFVCKRGYRLSSRSHTLRTTCWDGKLEYPTCAKRGGSGHHHHHH
B3: pCEP4-1NT8-14CT20 (other)
chain: EDCNELPPRRNTEILTGSWSDQTYPEGTQAIYKCRPGYRSLGNVIMVCRKGEWVALNPLRKCQKRPCGHPGDTPFGTFTLTGGNVFEYGVKAVYTCNEGYQLLGEINYRECDTDGWTNDIPICEVVKCLPVTAPENGKIVSSAMEPDREYHFGQAVRFVCNSGYKIEGDEEMHCSDDGFWSKEKPKCVEISCKSPDVINGSPISQKIIYKENERFQYKCNMGYEYSERGDAVCTESGWRPLPSCEEKSCDNPYIPNGDYSPLRIKHRTGDEITYQCRNGFYPATRGNTAKCTSTGWIPAPRCTLKPCDYPDIKHGGLYHENMRRPYFPVAVGKYYSYYCDEHFETPSGSYWDHIHCTQDGWSPAVPCLRKCYFPYLENGYNQNHGRKFVQGKSIDVACHPGYALPKAQTTVTCMENGWSPTPRCIRVKTCSKSSIDIENGFISESQYTYALKEKAKYQCKLGYVTADGETSGSITCGKDGWSAQPTCIKSGASGCPPPPQIPNSHNMTTTLNYRDGEKVSVLCQENYLIQEGEEITCKDGRWQSIPLCVEKIPCSQPPQIEHGTINSSRSSQESYAHGTKLSYTCEGGFRISEENETTCYMGKWSSPPQCEGLPCKSPPEISHGVVAHMSDSYQYGEEVTYKCFEGFGIDGPAIAKCLGEKWSHPPSCIKTDCLSLPSFENAIPMGEKKDVYKAGEQVTYTCATYYKMDGASNVTCINSRWTGRPTCRDTSCVNPPTVQNAYIVSRQMSKYPSGERVRYQCRSPYEMFGDEEVMCLNGNWTEPPQCKDSTGKCGPPPPIDNGDITSFPLSVYAPASSVEYQCQNLYQLEGNKRITCRNGQWSEPPKCLHPCVISREIMENYNIALRWTAKQKLYSRTGESVEFVCKRGYRLSSRSHTLRTTCWDGKLEYPTCAKRGGSGHHHHHH
B4: pCEP4-1NT7-10CT20 (other)
chain: EDCNELPPRRNTEILTGSWSDQTYPEGTQAIYKCRPGYRSLGNVIMVCRKGEWVALNPLRKCQKRPCGHPGDTPFGTFTLTGGNVFEYGVKAVYTCNEGYQLLGEINYRECDTDGWTNDIPICEVVKCLPVTAPENGKIVSSAMEPDREYHFGQAVRFVCNSGYKIEGDEEMHCSDDGFWSKEKPKCVEISCKSPDVINGSPISQKIIYKENERFQYKCNMGYEYSERGDAVCTESGWRPLPSCEEKSCDNPYIPNGDYSPLRIKHRTGDEITYQCRNGFYPATRGNTAKCTSTGWIPAPRCTLKPCDYPDIKHGGLYHENMRRPYFPVAVGKYYSYYCDEHFETPSGSYWDHIHCTQDGWSPAVPCLRKCYFPYLENGYNQNYGRKFVQGKSIDVACHPGYALPKAQTTVTCMENGWSPTPRCIRVKTGASGCELPKIDVHLVPDRKKDQYKVGEVLKFSCKPGFTIVGPNSVQCYHFGLSPDLPICKEQVQSCGPPPELLNGNVKEKTKEEYGHSEVVEYYCNPRFLMKGPNKIQCVDGEWTTLPVCIVEESTCGDIPELEHGWAQLSSPPYYYGDSVEFNCSESFTMIGHRSITCIHGVWTQLPQCVAIDKLKKCKSSNLIILEEHLKNKKEFDHNSNIRYRCRGKEGWIHTVCINGRWDPEVNCSMAQIQLCPPPPQIPNSHNMTTTLNYRDGEKVSVLCQENYLIQEGEEITCKDGRWQSIPLCVEKIPCSQPPQIEHGTINSSRSSQESYAHGTKLSYTCEGGFRISEENETTCYMGKWSSPPQCEGLPCKSPPEISHGVVAHMSDSYQYGEEVTYKCFEGFGIDGPAIAKCLGEKWSHPPSCIKTDCLSLPSFENAIPMGEKKDVYKAGEQVTYTCATYYKMDGASNVTCINSRWTGRPTCRDTSCVNPPTVQNAYIVSRQMSKYPSGERVRYQCRSPYEMFGDEEVMCLNGNWTEPPQCKDSTGKCGPPPPIDNGDITSFPLSVYAPASSVEYQCQNLYQLEGNKRITCRNGQWSEPPKCLHPCVISREIMENYNIALRWTAKQKLYSRTGESVEFVCKRGYRLSSRSHTLRTTCWDGKLEYPTCAKRGGSGHHHHHH
B5: pCEP4-1NT4-15CT20 (other)
chain: EDCNELPPRRNTEILTGSWSDQTYPEGTQAIYKCRPGYRSLGNVIMVCRKGEWVALNPLRKCQKRPCGHPGDTPFGTFTLTGGNVFEYGVKAVYTCNEGYQLLGEINYRECDTDGWTNDIPICEVVKCLPVTAPENGKIVSSAMEPDREYHFGQAVRFVCNSGYKIEGDEEMHCSDDGFWSKEKPKCVEISCKSPDVINGSPISQKIIYKENERFQYKCNMGYEYSERGDAVCTESGWRPLPSCEEKSGASGCSQPPQIEHGTINSSRSSQESYAHGTKLSYTCEGGFRISEENETTCYMGKWSSPPQCEGLPCKSPPEISHGVVAHMSDSYQYGEEVTYKCFEGFGIDGPAIAKCLGEKWSHPPSCIKTDCLSLPSFENAIPMGEKKDVYKAGEQVTYTCATYYKMDGASNVTCINSRWTGRPTCRDTSCVNPPTVQNAYIVSRQMSKYPSGERVRYQCRSPYEMFGDEEVMCLNGNWTEPPQCKDSTGKCGPPPPIDNGDITSFPLSVYAPASSVEYQCQNLYQLEGNKRITCRNGQWSEPPKCLHPCVISREIMENYNIALRWTAKQKLYSRTGESVEFVCKRGYRLSSRSHTLRTTCWDGKLEYPTCAKRGGSGHHHHHH
B6: pCEP4-1NT8-15CT20 (other)
chain: EDCNELPPRRNTEILTGSWSDQTYPEGTQAIYKCRPGYRSLGNVIMVCRKGEWVALNPLRKCQKRPCGHPGDTPFGTFTLTGGNVFEYGVKAVYTCNEGYQLLGEINYRECDTDGWTNDIPICEVVKCLPVTAPENGKIVSSAMEPDREYHFGQAVRFVCNSGYKIEGDEEMHCSDDGFWSKEKPKCVEISCKSPDVINGSPISQKIIYKENERFQYKCNMGYEYSERGDAVCTESGWRPLPSCEEKSCDNPYIPNGDYSPLRIKHRTGDEITYQCRNGFYPATRGNTAKCTSTGWIPAPRCTLKPCDYPDIKHGGLYHENMRRPYFPVAVGKYYSYYCDEHFETPSGSYWDHIHCTQDGWSPAVPCLRKCYFPYLENGYNQNYGRKFVQGKSIDVACHPGYALPKAQTTVTCMENGWSPTPRCIRVKTCSKSSIDIENGFISESQYTYALKEKAKYQCKLGYVTADGETSGSITCGKDGWSAQPTCIKSGASGCSQPPQIEHGTINSSRSSQESYAHGTKLSYTCEGGFRISEENETTCYMGKWSSPPQCEGLPCKSPPEISHGVVAHMSDSYQYGEEVTYKCFEGFGIDGPAIAKCLGEKWSHPPSCIKTDCLSLPSFENAIPMGEKKDVYKAGEQVTYTCATYYKMDGASNVTCINSRWTGRPTCRDTSCVNPPTVQNAYIVSRQMSKYPSGERVRYQCRSPYEMFGDEEVMCLNGNWTEPPQCKDSTGKCGPPPPIDNGDITSFPLSVYAPASSVEYQCQNLYQLEGNKRITCRNGQWSEPPKCLHPCVISREIMENYNIALRWTAKQKLYSRTGESVEFVCKRGYRLSSRSHTLRTTCWDGKLEYPTCAKRGGSGHHHHHH

What follows are binders tested against C3 convertase complex (UniProt P01024 23-1663; P00751 260-764) (assay: cell-based or functional assay).
C3 convertase complex, sequence (P01024 23-1663, chain 1 of 2): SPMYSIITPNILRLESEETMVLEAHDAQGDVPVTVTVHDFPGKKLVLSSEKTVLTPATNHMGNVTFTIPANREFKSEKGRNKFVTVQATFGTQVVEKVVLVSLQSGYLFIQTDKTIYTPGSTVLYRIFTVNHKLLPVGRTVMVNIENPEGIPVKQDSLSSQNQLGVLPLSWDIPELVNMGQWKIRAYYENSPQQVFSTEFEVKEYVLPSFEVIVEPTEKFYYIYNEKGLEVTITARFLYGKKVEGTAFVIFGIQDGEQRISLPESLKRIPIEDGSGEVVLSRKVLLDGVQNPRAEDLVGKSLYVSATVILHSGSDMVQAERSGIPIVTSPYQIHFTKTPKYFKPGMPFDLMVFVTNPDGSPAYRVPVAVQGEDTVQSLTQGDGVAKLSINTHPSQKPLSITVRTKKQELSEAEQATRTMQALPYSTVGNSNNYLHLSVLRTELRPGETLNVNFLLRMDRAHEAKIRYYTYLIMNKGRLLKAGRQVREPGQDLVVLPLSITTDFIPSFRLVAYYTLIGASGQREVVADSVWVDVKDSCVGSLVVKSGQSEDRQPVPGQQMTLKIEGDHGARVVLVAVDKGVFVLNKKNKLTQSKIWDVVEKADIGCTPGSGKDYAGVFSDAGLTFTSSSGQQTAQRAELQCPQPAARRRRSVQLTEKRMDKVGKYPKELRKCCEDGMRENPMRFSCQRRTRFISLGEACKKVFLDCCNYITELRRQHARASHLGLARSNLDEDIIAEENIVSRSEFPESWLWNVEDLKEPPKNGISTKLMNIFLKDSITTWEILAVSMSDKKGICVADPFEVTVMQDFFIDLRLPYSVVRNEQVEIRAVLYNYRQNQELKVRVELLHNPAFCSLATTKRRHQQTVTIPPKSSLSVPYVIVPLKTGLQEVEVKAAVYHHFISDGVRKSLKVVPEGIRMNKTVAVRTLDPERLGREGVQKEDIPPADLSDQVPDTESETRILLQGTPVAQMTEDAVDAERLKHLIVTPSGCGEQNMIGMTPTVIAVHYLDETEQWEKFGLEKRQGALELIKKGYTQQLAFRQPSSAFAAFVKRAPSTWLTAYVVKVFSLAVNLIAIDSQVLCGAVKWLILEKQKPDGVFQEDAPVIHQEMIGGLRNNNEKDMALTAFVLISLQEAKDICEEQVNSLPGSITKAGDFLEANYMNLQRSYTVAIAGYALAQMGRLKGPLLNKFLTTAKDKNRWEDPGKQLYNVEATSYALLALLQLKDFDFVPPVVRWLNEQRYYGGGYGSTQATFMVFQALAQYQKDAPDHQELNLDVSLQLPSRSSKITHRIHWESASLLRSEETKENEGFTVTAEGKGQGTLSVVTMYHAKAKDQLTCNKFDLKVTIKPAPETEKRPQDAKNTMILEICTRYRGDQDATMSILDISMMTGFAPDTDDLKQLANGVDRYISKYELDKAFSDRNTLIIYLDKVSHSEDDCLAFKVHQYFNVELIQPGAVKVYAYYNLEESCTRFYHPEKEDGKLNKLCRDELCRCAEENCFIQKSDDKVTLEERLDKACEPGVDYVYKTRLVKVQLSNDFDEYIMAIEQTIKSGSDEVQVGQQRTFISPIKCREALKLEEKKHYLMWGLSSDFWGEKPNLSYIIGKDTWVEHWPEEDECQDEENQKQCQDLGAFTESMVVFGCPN
C3 convertase complex, sequence (P00751 260-764, chain 2 of 2): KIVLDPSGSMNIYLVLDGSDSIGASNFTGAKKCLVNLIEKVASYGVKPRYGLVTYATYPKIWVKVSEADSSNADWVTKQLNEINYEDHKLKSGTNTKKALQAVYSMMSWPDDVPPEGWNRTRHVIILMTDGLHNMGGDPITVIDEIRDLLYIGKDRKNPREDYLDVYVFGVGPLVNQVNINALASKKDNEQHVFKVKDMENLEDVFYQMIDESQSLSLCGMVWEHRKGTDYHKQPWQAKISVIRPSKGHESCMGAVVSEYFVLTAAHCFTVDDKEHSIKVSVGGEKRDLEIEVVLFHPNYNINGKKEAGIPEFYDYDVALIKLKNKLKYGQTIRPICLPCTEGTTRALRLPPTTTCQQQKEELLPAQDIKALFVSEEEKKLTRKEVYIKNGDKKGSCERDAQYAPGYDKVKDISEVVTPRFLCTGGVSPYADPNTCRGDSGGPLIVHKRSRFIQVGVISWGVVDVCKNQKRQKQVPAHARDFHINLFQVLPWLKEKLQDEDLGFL
Wherever C3 convertase activity % of the control is given: test concentration or dose not given here.

In order of falling “C3 convertase activity % of the control” value:
1. B2  156 % of the control
2. B3  61 % of the control
3. B4  59 % of the control
4. B1  58 % of the control
5. B5  58 % of the control
6. B6  58 % of the control

In order of rising “C3 convertase activity IC50” value:
1. B5  0.206 µg/mL
2. B2  0.252 µg/mL
3. B4  0.602 µg/mL
4. B1  0.612 µg/mL
5. B6  0.628 µg/mL
6. B3  0.645 µg/mL
